Assays:
[1] = target: T1, human ST2 on primary human cells (human, UniProt Q01638 19-556); assay: cell-based or functional assay
T1 sequence: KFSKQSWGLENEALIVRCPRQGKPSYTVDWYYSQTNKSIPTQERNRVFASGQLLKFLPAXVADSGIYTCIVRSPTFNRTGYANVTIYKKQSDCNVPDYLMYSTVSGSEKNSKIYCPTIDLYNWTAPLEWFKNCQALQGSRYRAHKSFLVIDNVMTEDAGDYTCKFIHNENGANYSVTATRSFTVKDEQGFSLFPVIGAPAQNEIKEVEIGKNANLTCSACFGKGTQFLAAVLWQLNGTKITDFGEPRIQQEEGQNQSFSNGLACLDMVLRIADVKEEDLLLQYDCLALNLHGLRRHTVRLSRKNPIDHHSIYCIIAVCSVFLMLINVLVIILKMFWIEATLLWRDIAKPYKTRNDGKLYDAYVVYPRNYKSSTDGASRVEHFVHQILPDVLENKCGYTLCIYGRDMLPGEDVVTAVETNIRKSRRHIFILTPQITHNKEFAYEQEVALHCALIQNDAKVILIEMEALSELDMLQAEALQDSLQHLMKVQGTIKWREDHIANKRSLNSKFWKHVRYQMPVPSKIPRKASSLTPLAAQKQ

[2] = target: ST2 (Example 4, pH-sensitive binding); assay: SPR Biacore 4000; kd at pH 5.5 against kd at pH 7.4
Protocol: (§1) The association (5 min) rates at pH 7.4 and dissociation (10 min) rates at pH 5.5 and 7.4 were monitored at a flow rate of 30 uL/min. The reference subtracted data was fit to a 1:1 model in Scrubber.

[3] = target: ST2 (Example 4, pH-sensitive binding); assay: SPR Biacore 4000; association at pH 7.4, dissociation at pH 5.5; estimated kd
Protocol: as §1

[4] = target: ST2 (Example 4, pH-sensitive binding); assay: SPR Biacore 4000; association at pH 7.4, dissociation at pH 7.4; estimated kd
Protocol: as §1

[5] = target: T1, human ST2 on primary human cells; assay: cell-based or functional assay; remark: listed apart in the source
[6] = target: T2, cynomolgus monkey ST2 on cynomolgus monkey CD4+ T cells (cynomolgus monkey, UniProt Q01638 19-556 (human entry)); assay: cell-based or functional assay
T2 chain: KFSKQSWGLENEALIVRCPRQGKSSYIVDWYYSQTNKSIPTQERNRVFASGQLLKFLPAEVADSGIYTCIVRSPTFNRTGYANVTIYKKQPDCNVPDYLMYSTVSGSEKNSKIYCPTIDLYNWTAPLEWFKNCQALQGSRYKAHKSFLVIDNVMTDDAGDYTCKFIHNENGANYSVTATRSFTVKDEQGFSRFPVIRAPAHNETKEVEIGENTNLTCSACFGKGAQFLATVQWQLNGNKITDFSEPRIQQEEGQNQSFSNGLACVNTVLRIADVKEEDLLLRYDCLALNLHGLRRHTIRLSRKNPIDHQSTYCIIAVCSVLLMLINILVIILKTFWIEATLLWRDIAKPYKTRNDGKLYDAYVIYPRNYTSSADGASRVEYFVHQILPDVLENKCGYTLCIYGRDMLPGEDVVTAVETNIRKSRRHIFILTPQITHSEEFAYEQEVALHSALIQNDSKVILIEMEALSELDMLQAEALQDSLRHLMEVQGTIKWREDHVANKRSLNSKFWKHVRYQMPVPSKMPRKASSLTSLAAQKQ

[7] = target: T1, human ST2 on primary human cells; assay: cell-based or functional assay; remark: listed apart in the source

| Binder | IC50 (read off the curve); % inhibition of IL-5 production by human CD4+ T cells stimulated with human IL-33 + IL-2 [1] [µg/mL] | pH 7.4/pH 5.5 kd fold change [2] [fold] | koff [3] [s⁻¹] | koff [4] [s⁻¹] | IC50 (nM), inhibition of human IL-33-induced IL-5 production from human CD4+ T cells [5] [nM] | IC-50, cynomolgus monkey CD4+ T cell IFNγ release assay (IL-33, IL-2 and IL-12p70 stimulation) [6] [pM] | IC-50, human eosinophil IL-8 release assay (IL-33 and IL-3 stimulation) [7] [pM] |
| --- | --- | --- | --- | --- | --- | --- | --- |
| Ab2 (antibody, human IgG2, kappa, V domains shown, Fully human anti-ST2 antibody (XenoMouse); Full chains are the exemplary Ab2 chains) VH: EVQLVQSGAEVKKPGESLKISCKGSGYSFTNYWIGWVRQMPGKGLEWMGIIYPGNSDTRFSPSFQGQVTISADKSITTAYLQWSSLKASDTAMYYCARHGTSSDYYGLDVWGQGTTVTVSS VL: not shown | ~0.03 | 8 | 0.000238 | 2.98e-05 |  |  |  |
| Ab6 (antibody, human IgG2, kappa, V domains shown) VH: EVQLVESGGGLVQPGGSLRLSCAASGFTFSTYDMHWVRQTTGKGLEWVSAIDLAGDTYYPGSVKGRFTISREDAKNSLYLQMNSLRAGDTAVYYCARGGDGYNYDYYGIDVWGQGTTVTVSS VL: DIVMTQSPLSLPVTPGEPASISCRSSQSLLHSDGYHYLDWYLQKPGQSPQLLIYLGSNRASGVPDRFSGSGSGTDFTLNISRVEAEDVGVYYCMQALQTLTFGGGTKVEIKR | ~0.09 |  |  |  |  |  |  |
| Ab5 (antibody, human IgG2, kappa, V domains shown) VH: EVQLVESGGGWVQPGGSLRLSCAASGFTFSSYDMYWVRQATGKGLEWVSGIDTVGDTYYPDSVKGRFTISRENAKNSVYLQMNTLRAGDTAVYYCVRGIYGDFYYYGLDVWGHGTTVTVSS VL: DIVMTQSPLSLPVTPGEPASISCRSSQSLLYSDGNNYLDWYLQKPGQSPHLLIYLGSNRASGVPDRFSGSGSGTDFTLKISRVEADDVGVYYCMQALQTLTFGGGTKVEIKR | ~0.09 |  |  |  |  |  |  |
| Ab7 (antibody, human IgG2, kappa, V domains shown) VH: EVQLVESGGGLVQPGGSLRLSCAASGFTFSTYDMHWVRQTTGKGLEWVSAIDLAGDTYYPGSVKGRFTISREDAKNSLYLQMNSLRAGDTAVYYCARGGDGYNYDYYGIDVWGQGTTVTVSS VL: DIVMTQSPLSLPVTPGEPASISCRSSQSLLHSDGYHYLDWYLQKPGQSPQLLIYLGSNRASGVPDRFSGSGSGTDFTLNISRVEAEDVGVYYCMQALQTLTFGGGTKVEIKR | ~0.02 |  |  |  |  |  |  |
| Ab3 (antibody, human IgG2, kappa, V domains shown, Fully human anti-ST2 antibody) VH: EVQLVESGGGLVQPGGSLRLSCAASGFTFSTYDMHWIRQAPGKNLEWVSAIDLAGDTYYPGSVKGRFTISREDAKNSLYLQMNSLRAGDTAVYYCARGGDGYNYDYYGIDVWGQGTTVTVSS VL: DIVMTQSPLSLPVTPGEPASISCRSSQSLLHSDGYHYLDWYLQKPGQSPQLLIYLGSNRASGVPDRFTGSGSGTDFTLKISRVEAEDVGVYYCMQALQILTFGGGTKVEIKR | ~0.3 | 2.9 | 7.91e-05 | 2.73e-05 |  |  |  |
| Ab8 (antibody, human IgG2, kappa, V domains shown) VH: EVQLVESGGGLVQPGGSLRLSCAASGFTFSSYDMYWVRQATGKGLEWVSAIDTVGDTYYPGSVKGRFTISRENAKNSLYLQMNSLRVGDTAVYYCARGGDYDYSYYGMDVWGQGTTVTVSS VL: not shown | ~0.9 |  |  |  | 6.9 | 158 | 3120 |
| Ab1 (antibody, human IgG2, kappa, V domains shown, Fully human anti-ST2 antibody (XenoMouse); Full chains are the exemplary Ab1 chains) VH: QVQLVQSGAEVKKPGASVKVSCKVSGYTLTELSIHWVRQAPGKGLEWMGGFGPEDGETIYAQKFQGRVTMTEDTSTDTAYMELSSLRSEDTAVYYCTTEDSSGLFDYWGQGTLVTVSS VL: not shown |  | 88.1 | 0.0118 | 0.000134 |  |  |  |
| Ab4 (antibody, human IgG2, kappa, V domains shown, Fully human anti-ST2 antibody) VH: QVQLVQSGAEVKKPGASVKVSCEVSGFILTELSVNWVRQAPGKGLEWMGGFDPEDGKTIYAQKFQGRVTLTEDTSTDTAYMELSSLRSEDTAVYYCATWWDFHFDFWGQGTLVTVSS VL: DFVMTQTPLSLSVTPGQPASISCKSSQSLLHSNGKTYLYWFLQKPGQPPQLLIYEVSNRFSGVPDRFSGSGSGTDFTLKISRVEAEDVGVYYCMQSIQLPLTFGGGTKVEIKR | ~0.08 | 16.9 | 0.0107 | 0.000632 |  |  |  |

Source: patent US20170002079A1 (Amgen, published 2017)
